# B1: His-ISG65 18-363-Avi (N-terminal hexa-histidine tag, C-terminal Avi-tag, biotinylated) (receptor)
# chain: LLVIGSEDNRVPGDKKLTKEGAAALCKMKHLADKVAKERSQELKDRTQNFAGYIEFELYRIDYWLEKLNGPKGRKDGYAKLSDSDIEKVKEIFNKAKDGITKQLPEAKKAGEEAGKLHTEVKKAAENARGQDLDDDTAKSTGLYRVLNWYCITKEERHNATPNCDGIQFRKHYLSVNRSAIDCSSTSYEENYDWSANALQVALNSWEDVKPKKLESAGSDKNCNIGQSSESHPCTMTEEWQTPYKETVEKLRELEDAYQRGKKAHDAMLGYANTAYAVNTKVEQEKPLTEVIAAAKEAGKKGAKIIIPAAAPATPTNSTKNDDSAPTEHVDRGIATNETQVEVGID
# modifications: site-specific biotin on the C-terminal Avi-tag
# notes: Immobilised ligand in SPR on a CAP chip; also called ISG65-Avi; biotinylated ISG65; not shown: N-terminal hexa-histidine tag of pET15b construct; C-terminal Avi-tag
# B2: His-ISG65 18-363 Y293A (receptor)
# chain: MGSSHHHHHHSSGLVPRGSHMLLVIGSEDNRVPGDKKLTKEGAAALCKMKHLADKVAKERSQELKDRTQNFAGYIEFELYRIDYWLEKLNGPKGRKDGYAKLSDSDIEKVKEIFNKAKDGITKQLPEAKKAGEEAGKLHTEVKKAAENARGQDLDDDTAKSTGLYRVLNWYCITKEERHNATPNCDGIQFRKHYLSVNRSAIDCSSTSYEENYDWSANALQVALNSWEDVKPKKLESAGSDKNCNIGQSSESHPCTMTEEWQTPYKETVEKLRELEDAYQRGKKAHDAMLGYANTAAAVNTKVEQEKPLTEVIAAAKEAGKKGAKIIIPAAAPATPTNSTKNDDSAPTEHVDRGIATNETQVEVGID
# notes: also called ISG65 Y293A
# How the values were obtained:
# [1] = target: His-C3d N1134A (human) (UniProt P01024); assay: SPR (BIAcore T200, 25°C); biotinylated ISG65-Avi immobilised, C3d N1134A as analyte; column kon1
# His-C3d N1134A (human), sequence (P01024 996-1303, stated change not applied): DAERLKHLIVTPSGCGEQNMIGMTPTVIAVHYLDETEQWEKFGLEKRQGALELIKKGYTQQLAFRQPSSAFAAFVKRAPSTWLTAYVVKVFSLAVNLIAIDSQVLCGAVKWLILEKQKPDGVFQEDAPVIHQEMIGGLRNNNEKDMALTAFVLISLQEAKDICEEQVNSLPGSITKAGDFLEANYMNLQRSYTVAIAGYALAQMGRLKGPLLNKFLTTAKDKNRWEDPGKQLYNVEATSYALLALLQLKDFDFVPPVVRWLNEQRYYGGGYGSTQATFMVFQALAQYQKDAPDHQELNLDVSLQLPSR
# [2] = target: His-C3d N1134A (human) (UniProt P01024); assay: SPR; ISG65-Avi immobilised, C3d mutant as analyte; the table prints 25
# [3] = target: Human C3(H2O) (human) (UniProt P01024); assay: SPR (BIAcore T200, 25°C); biotinylated ISG65-Avi immobilised, C3(H2O) as analyte; column kon1
# [4] = target: His-C3d N1134A (human) (UniProt P01024); assay: SPR (BIAcore T200, 25°C); biotinylated ISG65-Avi immobilised, C3d N1134A as analyte; column koff1
# [5] = target: Human C3(H2O) (human) (UniProt P01024); assay: SPR (BIAcore T200, 25°C); biotinylated ISG65-Avi immobilised, C3(H2O) as analyte; column koff1
# [6] = target: Human C3(H2O) (human) (UniProt P01024); assay: SPR (BIAcore T200, 25°C); biotinylated ISG65-Avi immobilised, C3(H2O) as analyte
# [7] = target: His-C3d N1134A (human) (UniProt P01024); assay: SPR (BIAcore T200, 25°C); biotinylated ISG65-Avi immobilised, C3d N1134A as analyte; relative to wild type
# [8] = target: His-C3d N1134A (human) (UniProt P01024); assay: SPR (BIAcore T200, 25°C); biotinylated ISG65-Avi immobilised, C3d N1134A as analyte
# [9] = target: T1, His-C3d (recombinant human C3d, thioester domain of C3) (human, UniProt P01024 996-1303); assay: SPR (BIAcore T200, 25°C); biotinylated ISG65-Avi immobilised, C3d Wt as analyte; column kon1
# T1 construct: domain: C3d; also called C3d Wt; TED; not shown: His-tag
# T1 sequence (P01024 996-1303 limits assumed): as the sequence (P01024 996-1303, stated change not applied) above
# [10] = target: T1, His-C3d (recombinant human C3d, …); assay: SPR (BIAcore T200, 25°C); biotinylated ISG65-Avi immobilised, C3d Wt as analyte; column koff1
# [11] = target: T2, His-C3d E1110A (human, UniProt P01024 996-1303); assay: SPR (BIAcore T200, 25°C); biotinylated ISG65-Avi immobilised, C3d E1110A as analyte
# T2 construct: domain: C3d; not shown: His-tag
# T2 sequence (P01024 996-1303 E1110A limits assumed): as the sequence (P01024 996-1303, stated change not applied) above, with E115A counted along it
# [12] = target: T3, Human C3a (ANA domain of C3 when released) (human, UniProt P01024 672-748); assay: SPR (BIAcore T200, 25°C); biotinylated ISG65-Avi immobilised, C3a as analyte
# T3 construct: domain: C3a; also called free C3a; recombinant C3a
# T3 sequence (P01024 672-748 limits assumed): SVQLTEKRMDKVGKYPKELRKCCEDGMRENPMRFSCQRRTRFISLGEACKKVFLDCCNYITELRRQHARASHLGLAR
# [13] = target: T4, Native human complement factor 3 (C3) (human, UniProt P01024 23-667; P01024 672-1663); assay: SPR (BIAcore T200, 25°C); biotinylated ISG65-Avi immobilised, C3 as analyte; column kon1
# T4 construct: Purified from normal human serum (Sigma-Aldrich); also called native C3; human C3
# T4 sequence (P01024 23-667 limits assumed, chain 1 of 2): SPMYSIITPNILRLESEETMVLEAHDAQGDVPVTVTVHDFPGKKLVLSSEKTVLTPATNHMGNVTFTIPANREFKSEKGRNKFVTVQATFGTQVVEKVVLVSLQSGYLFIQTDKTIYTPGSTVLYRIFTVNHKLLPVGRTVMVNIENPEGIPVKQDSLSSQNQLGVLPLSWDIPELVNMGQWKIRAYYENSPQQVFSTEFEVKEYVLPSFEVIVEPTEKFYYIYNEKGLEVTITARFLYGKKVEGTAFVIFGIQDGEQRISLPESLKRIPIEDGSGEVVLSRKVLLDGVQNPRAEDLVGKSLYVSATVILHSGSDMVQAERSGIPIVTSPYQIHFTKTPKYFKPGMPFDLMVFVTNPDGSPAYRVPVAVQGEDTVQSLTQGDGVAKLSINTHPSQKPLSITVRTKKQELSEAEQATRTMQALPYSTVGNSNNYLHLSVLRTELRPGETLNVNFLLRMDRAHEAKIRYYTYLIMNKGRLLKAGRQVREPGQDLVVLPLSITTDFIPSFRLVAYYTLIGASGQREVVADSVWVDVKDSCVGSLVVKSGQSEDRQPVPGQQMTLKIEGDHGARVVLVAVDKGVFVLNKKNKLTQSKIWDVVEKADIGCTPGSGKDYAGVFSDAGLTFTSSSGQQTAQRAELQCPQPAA
# T4 sequence (P01024 672-1663 limits assumed, chain 2 of 2): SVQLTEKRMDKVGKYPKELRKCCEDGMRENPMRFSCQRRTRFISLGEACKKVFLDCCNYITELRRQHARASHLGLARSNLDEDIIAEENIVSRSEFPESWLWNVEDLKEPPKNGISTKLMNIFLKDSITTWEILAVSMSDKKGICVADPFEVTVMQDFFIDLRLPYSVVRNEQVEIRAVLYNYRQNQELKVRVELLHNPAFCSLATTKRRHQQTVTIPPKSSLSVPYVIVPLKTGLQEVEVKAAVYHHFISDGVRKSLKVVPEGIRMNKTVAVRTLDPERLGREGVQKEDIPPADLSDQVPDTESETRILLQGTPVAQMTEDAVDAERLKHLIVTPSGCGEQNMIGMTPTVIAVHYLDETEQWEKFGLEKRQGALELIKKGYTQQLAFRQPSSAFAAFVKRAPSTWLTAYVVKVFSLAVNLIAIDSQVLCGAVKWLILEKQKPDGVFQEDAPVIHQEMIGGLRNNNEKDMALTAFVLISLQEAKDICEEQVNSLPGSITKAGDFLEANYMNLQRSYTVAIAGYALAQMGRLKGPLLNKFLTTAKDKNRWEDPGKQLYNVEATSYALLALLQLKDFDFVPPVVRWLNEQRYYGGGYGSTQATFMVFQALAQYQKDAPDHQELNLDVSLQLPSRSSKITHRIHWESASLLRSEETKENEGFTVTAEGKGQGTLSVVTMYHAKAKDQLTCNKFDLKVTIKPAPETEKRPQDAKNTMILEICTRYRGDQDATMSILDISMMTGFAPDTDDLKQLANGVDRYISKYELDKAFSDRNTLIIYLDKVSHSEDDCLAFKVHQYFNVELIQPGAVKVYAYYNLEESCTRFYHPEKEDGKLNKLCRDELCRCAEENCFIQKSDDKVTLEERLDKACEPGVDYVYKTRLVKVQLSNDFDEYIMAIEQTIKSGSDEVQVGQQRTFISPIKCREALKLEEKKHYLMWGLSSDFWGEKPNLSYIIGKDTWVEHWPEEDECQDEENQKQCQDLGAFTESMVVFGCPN
# [14] = target: T1, His-C3d (recombinant human C3d, …); assay: SPR (BIAcore T200, 25°C); biotinylated ISG65-Avi immobilised, C3d Wt as analyte
# [15] = target: T4, Native human complement factor 3 (C3); assay: SPR (BIAcore T200, 25°C); biotinylated ISG65-Avi immobilised, C3 as analyte
# [16] = target: T5, Human C3b (human, UniProt P01024 749-1663; P01024 23-667); assay: SPR (BIAcore T200, 25°C); biotinylated ISG65-Avi immobilised, C3b as analyte; column koff1
# T5 construct: domain: α-chain of C3b;domain: β-chain of C3b
# T5 sequence (P01024 749-1663 limits assumed, chain 1 of 2): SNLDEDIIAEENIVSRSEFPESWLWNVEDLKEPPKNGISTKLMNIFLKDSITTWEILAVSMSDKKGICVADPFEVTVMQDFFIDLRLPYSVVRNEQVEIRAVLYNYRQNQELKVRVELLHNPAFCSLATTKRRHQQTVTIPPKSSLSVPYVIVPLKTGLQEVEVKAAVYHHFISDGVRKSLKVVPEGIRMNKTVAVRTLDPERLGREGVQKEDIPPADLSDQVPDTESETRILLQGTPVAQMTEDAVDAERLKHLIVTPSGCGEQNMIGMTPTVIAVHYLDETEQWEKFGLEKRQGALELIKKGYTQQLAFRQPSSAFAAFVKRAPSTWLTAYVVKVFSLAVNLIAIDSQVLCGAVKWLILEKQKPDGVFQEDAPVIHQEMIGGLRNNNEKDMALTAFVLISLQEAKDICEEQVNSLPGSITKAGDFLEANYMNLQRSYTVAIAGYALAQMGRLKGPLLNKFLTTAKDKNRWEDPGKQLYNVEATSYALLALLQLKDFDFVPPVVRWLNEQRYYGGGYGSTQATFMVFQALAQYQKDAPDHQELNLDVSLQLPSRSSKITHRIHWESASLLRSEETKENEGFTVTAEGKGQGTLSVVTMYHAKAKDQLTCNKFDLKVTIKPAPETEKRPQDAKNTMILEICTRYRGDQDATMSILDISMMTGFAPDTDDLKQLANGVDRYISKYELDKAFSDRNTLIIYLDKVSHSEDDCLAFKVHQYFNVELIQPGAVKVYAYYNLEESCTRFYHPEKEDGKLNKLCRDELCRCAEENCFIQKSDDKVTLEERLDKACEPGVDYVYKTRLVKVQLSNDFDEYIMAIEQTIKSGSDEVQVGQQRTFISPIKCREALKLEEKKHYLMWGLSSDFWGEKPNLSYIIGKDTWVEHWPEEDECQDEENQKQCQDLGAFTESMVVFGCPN
# T5 sequence (P01024 23-667 limits assumed, chain 2 of 2): as the sequence (P01024 23-667 limits assumed, chain 1 of 2) above
# [17] = target: T4, Native human complement factor 3 (C3); assay: SPR (BIAcore T200, 25°C); biotinylated ISG65-Avi immobilised, C3 as analyte; column koff1
# [18] = target: T5, Human C3b; assay: SPR (BIAcore T200, 25°C); biotinylated ISG65-Avi immobilised, C3b as analyte
# [19] = target: T6, His-C3d L1109A (human, UniProt P01024 996-1303); assay: SPR (BIAcore T200, 25°C); biotinylated ISG65-Avi immobilised, C3d L1109A as analyte
# T6 construct: domain: C3d; not shown: His-tag
# T6 sequence (P01024 996-1303 L1109A limits assumed): as the sequence (P01024 996-1303, stated change not applied) above, with L114A counted along it
# [20] = target: T5, Human C3b; assay: SPR (BIAcore T200, 25°C); biotinylated ISG65-Avi immobilised, C3b as analyte; column kon1
# [21] = target: T7, His-C3d-Avi (N-terminal His-tag, C-terminal Avi-tag, biotinylated) (human, UniProt P01024 996-1303, site-specific biotin on the C-terminal Avi-tag); assay: SPR (BIAcore T200, 25°C); biotinylated C3d-Avi immobilised, ISG65 Y293A as analyte
# T7 construct: domain: C3d; Immobilised ligand in SPR for the ISG65 mutants; not shown: N-terminal His-tag; C-terminal Avi-tag
# T7 sequence (P01024 996-1303 limits assumed): as the sequence (P01024 996-1303, stated change not applied) above
molecule,measurement,setting,value
"His-ISG65 18-363-Avi (N-terminal hexa-histidine tag, C-terminal Avi-tag, biotinylated) (receptor)",kon,[1],1.89e+06 M⁻¹ s⁻¹
same,binding affinity (% of wild type),[2],24%
same,kon,[3],942000 M⁻¹ s⁻¹
same,koff,[4],0.0542 s⁻¹
same,koff,[5],0.017 s⁻¹
same,Kd,[6],18 nM
same,ISG65 binding (%),[7],25%
same,Kd,[8],28.6 nM
B1,kon,[9],5.24e+06 M⁻¹ s⁻¹
same,koff,[10],0.0379 s⁻¹
same,Kd,[11],15.7 nM
same,Kd,[12],18.1 µM
same,kon,[13],81800 M⁻¹ s⁻¹
same,Kd,[14],7.2 nM
same,Kd,[15],129 nM
same,koff,[16],0.0212 s⁻¹
same,koff,[17],0.0543 s⁻¹
same,Kd,[18],80.9 nM
same,Kd,[19],52.9 nM
same,kon,[20],262000 M⁻¹ s⁻¹
B2,binding result,[21],no binding (tested: ISG65 analyte 1.5-100 nM)
